Measured values published in patent US20150018409A1, “CHIMERIC POLYPEPTIDES AND THEIR USE” (ADRIACELL S.P.A., priority 2003, published 2015).

How the values were obtained:
U2OS cells [1] = experiment: FACS analysis of DNA content / cell cycle distribution; format: cell-based, human; conditions: for cells in G2 phase: control 20%
Method: The distribution of the various phases of the cell cycle of the protein transduced cells was analysed by FACS analysis. Distribution of the DNA content of the cell populations was detected. 2n represents a diploid DNA equivalent (non replicated; G1 phase), 4n represents the tetraploid DNA equivalent (replicated; G2/M phase). For the FACS analysis the cells were separated employing the DDM mode that allows to estimate DNA content of a single cell. U2OS cells were grown for 24 hours (upper row) or 48 hours (lower row) in the presence of increasing amounts of […] (10 nM, 50 nM, 100 nM) as indicated and with only one addition of proteins; non treated cells (control); cells treated with a nuclease impaired derivative of […] (SC34, 100 nM). All the histograms shown represent a measure of DNA content relative to the cell numbers as indicated only on the upper right panel.
U2OS cells were incubated with […] (10 nM, panel B), or with H2O2 (10 μM, panelC), or both ([…], 10 nM; H2O2, 10 μM; panel D), or with no agent as a control (panel A). Further treatment cells were analysed in FACS for DNA content; the percentage of the various cell cycle phases are indicated at the bottoms of the individual histograms.
Finally, to confirm that the DSB's that are produced in vivo also induce perturbations in the cell cycle, DNA content in the various phases of the cell cycle was analysed by Fluorescence Activated Cell Sorting (FACS) after transduction of the proteins of the invention. After the treatment with diverse proteins at various concentrations and during different timepoints, the cells were fixed in 70% ethanol, treated with RNAse A and stained with propidium […].
The FACS analysis was done using a FACSCalibur™ (Becton Dickinson) apparatus. The obtained data were evaluated with the CellQuest™ software program package. At least 3×10^4 single events for every sample were analysed in the DDM mode. The statistic analysis of the DNA content distribution during the cell cycle was done with the MODFIT LT™ software program package. A 2N diploid DNA content correspond to cells in the G1 phase of the cell cycle, 4N represents a relative tetraploid DNA content and corresponds to G2 and/or M phase of the cell cycle. An intermediate DNA content represents S phase corresponding to a population actively replicating DNA during the cell cycle and a content that is below diploid 2N represents cells in apoptosis.
U2OS cells were incubated with 10 nM […] and with 10 μM H2O2 alone or in combination ant the cell cycle profile was analysed by FACS.

HCT116 (p53(+/+)) cells = experiment: Cell cycle arrest point: nuclear morphology and immunofluorescence of cyclin B1 and Cdc25C; format: cell-based, human
Method: Microscopic analysis of the HCT116 (p53(+/+)) cells not treated, or treated with […] (100 nM) for 30 hours, or with taxol (0.2 μg/ml). Immunofluorescence analysis was done with primary antibodies specific for cyclin B1 or specific for Cdc25C and coloured with secondary conjugates of FITC (green, cyclinB1) or TRITC (red, Cdc25C).
Moreover, the initiation of mitosis, i.e. induced with the microtuble blocking agents Nocodazol or Taxol, can be detected by the nuclear activity of the Cdc2 kinase and also by nuclear localisation of Cdc25C. These assays allow to dissect the exact point of cell cycle arrest after […] treatment and this further allows to detect disturbations in this phase of the cell cycle relative to a positive control. Similar experiments are well known in the art also for other phases of the cell cycle. The assay shown in FIG. 7A and the immunofluorescence analysis shown in FIG. 14 show examples for these types of experiments.
HCT116 (p53(+/+)) not treated, or treated for 30 hours with […] (100 nM), or with Taxol (0.2 μg/ml) were fixated with 3% PFA and treated with specific antibodies to cyclin B1 or for Cdc25C. The immunofluorescence was analysed with the microscope (see FIG. 14) with specific primary antibodies to cyclin B1 conjugated to FITC labelled secondary antibodies (green) or with specific primary antibodies to Cdc25C conjugated to TRITC labelled secondary antibodies (red).

U2OS cells [2] = experiment: Histone H2AX Ser139 phosphorylation, single cell fluorescence microscopy; format: cell-based, human; conditions: 100 nM, 60 minutes
Method: U2OS cells were treated with [sequence] (100 nM, central column) for 60 minutes, in addition treatment was done with Wortmanin (50 μM, WM, right column), or with no agent as a control (left column). After treatment cells were stained with specific antibodies to H2AX-Ser-139 phosphorylated (red) or for Histone 2B (served as a control, green) and analysed on a single cell level by fluorescence microscopy.
As another example for a phosphorylation of a substrate of ATM in response to the object of the invention, histone H2AX Ser^139 phosphorylation was analysed. […] U2OS cells were treated for 60 minutes with [sequence], fixed and analysed for histone H2AX Ser^139 phosphorylation. Cells were analysed with a specific antiserum to phospho-Ser 139 on histone H2AX and analysed in the microscope on a single cell basis. As a control histone 2B was analysed.

[3] = tested on: MRC-5 cells (ATM positive control); experiment: Colony forming assay; format: cell-based; conditions: 60 minutes treatment, 25 nM or 100 nM
Method: FIG. 8. Induction of Cell Cycle Block and Clonogenic Activity by […] of Cells Mutated for ATM (AT-5) in Comparison to Non Mutated Cells (MRC-5). • A) Distribution of DNA content distribution during the cell cycle detected by FACS analysis of AT-5 cells after 36 hours of […] treatment (25 nM, 100 nM), or with adriamycin (0.02 μg/ml; ADRIAMYCIN), or with SC34 (100 nM), and as control from non treated cells. The histograms represent DNA content relative to the cell-numbers; the panel on the right indicates the percentage of the corresponding distributions of the various cell cycle phases as calculated with the MODFIT™ program-package. • B) Colony forming assay with cell lines mutated for ATM and induced for DNA damage by […].
The cell cycle response to DSB's induced by […] treatment were analysed in p53 positive or negative cells. […] Incubation for 36 hours of the cell lines mutated for ATM (AT-5) with […] results in a transient retardation of the cell cycle, as was determined by a DNA content FACS analysis. […] A single addition of […] for 60 minutes to the AT-5 cells was sufficient to induce cell cycle stop after 24 hours (FIG. 8A) and finally leads to cell death, obtained from not correctly ligated DNA, and consequently, the clonogenic activity after a single treatment with […] for 60 minutes was below 0.02% for AT-5 cells. […] In addition, the cells were incubated with adriamycin as a control.

[4] = tested on: MO59J (DNA-PKcs−/−) glioblastoma cells compared to MO59K; experiment: Colony forming assay with automatic analysis (VersaDoc); format: cell-based, human; set-up: dose or concentration left out as unconfirmed; conditions: single treatment for 12 hours
Excerpt: Statistical analysis of the results was done and is represented as a histogram. […] An example of the colony forming assay is shown. The assay was done employing various concentrations of cells in the order of three magnitudes (from the upper to the lower rows, 1×10^4, 2×10^3, 4×10^2, 8×10). On the right B), the histograms of the results from the colony forming assay of the cell-lines MO59J compared to MO59K is shown. The assays were done as in FIG. 9 but analysed with the aid of the Versadoc 4 (BioRad) system. […]

[5] = tested on: MRC-5 cells (ATM positive); conditions: SCPVUTAT 100 nM or HU 1 mM
Method: [sequence] dependent Ser^15 phosphorylation of p53. The ATM positive cell-line MRC5 was treated with [sequence] (100 nM, SC) or with hydroxyurea (1 mM, HU) for the time periods as indicated; as a control non treated cells were used (O).
(§1) P53 phosphorylation on Ser15 in response to [sequence] treatment was assayed in ATM positive or negative cell lines (MRC-5 and AT-5 respectively). For comparison parallel experiments were done with hydroxyurea (HU). […] For this immunoblotting experiments were done with extracts after treatment, by using specific antibodies to a phosphorylated Ser15 in p53 for specific detection.

[6] = tested on: AT-5 cells (ATM negative); conditions: SCPVUTAT 100 nM or HU 1 mM
Method: AT-5 cells, negative for ATM were treated with [sequence]
as §1

B1: SCPVUTAT: single chain PvuII endonuclease (aa 1-157, GSGG linker, aa 2-157) fused to HIV Tat peptide and six histidine tag; SEQ ID NO:2 (protein, listed as Proteus vulgaris)
chain: MSHPDLNKLLELWPHIQEYQDLALKHGINDIFQDNGGKLLQVLLITGLTVLPGREGNDAVDNAGQEYELKSINIDLTKGFSTHHHMNPVIIAKYRQVPWIFAIYRGIAIEAIYRLEPKDLEFYYDKWERKWYSDGHKDINNPKIPVKYVMEHGTKIYGSGGSHPDLNKLLELWPHIQEYQDLALKHGINDIFQDNGGKLLQVLLITGLTVLPGREGNDAVDNAGQEYELKSINIDLTKGFSTHHHMNPVIIAKYRQVPWIFAIYRGIAIEAIYRLEPKDLEFYYDKWERKWYSDGHKDINNPKIPVKYVMEHGTKIYGSYGRKKRRQRRRGGSHHHHHH
U2OS cells [1]; 10 nM SCPVUTAT alone
  cells in G2 phase: 28%
U2OS cells [1]; 10 nM SCPVUTAT in combination with 10 μM H2O2
  cells in G2 phase: 45%
U2OS cells [1]; 10 nM, incubation for 24 hours
  change of cell cycle distribution (DNA content): increase in the teraploid population
HCT116 (p53(+/+)) cells; 30 hours, SCPVUTAT 100 nM or Taxol 0.2 μg/ml
  cell cycle stop from localisation of Cdc25C and cyclin B: G2 phase stop
HCT116 (p53(+/+)) cells; upon treatment with SCPVUTAT (100 nM)
  cell cycle block: reversible block in the phase of the cell cycle that corresponds to late S/G2
U2OS cells [2]
  histone H2AX Ser139 phosphorylation: rapidly induces histone H2AX Ser^139 phosphorylation
[3]
  sensitivity in colony forming assay compared to AT-5: less sensitive
[4]
  sensitivity in colony forming assay versus parental MO59K: significant differential increase in sensibility
[5]
  p53-Ser15 phosphorylation: specific phosphorylation of p53-Ser^15 is obtained
[6]
  p53-Ser15 phosphorylation: specific phosphorylation of p53-Ser^15 is obtained
